The source of these data is patent publication US20240190956A1 (published 2024).

For the experiment, the target named is folate receptor alpha (FR-α) (human, UniProt P15328 25-234). Nature of the experiment: FACS binding on T47D cells. (In general: Flow cytometry measures light scatter and fluorescence of single cells or particles in a stream.)
folate receptor alpha (FR-α), sequence (P15328 25-234): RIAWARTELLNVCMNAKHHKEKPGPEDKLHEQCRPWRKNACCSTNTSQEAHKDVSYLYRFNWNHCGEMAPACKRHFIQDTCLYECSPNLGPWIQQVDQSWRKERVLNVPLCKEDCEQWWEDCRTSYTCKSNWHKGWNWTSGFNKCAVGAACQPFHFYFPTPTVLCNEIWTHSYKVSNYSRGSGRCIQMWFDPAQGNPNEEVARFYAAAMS

B1: huMOV19-sSPDB-Compound A (antibody)
heavy: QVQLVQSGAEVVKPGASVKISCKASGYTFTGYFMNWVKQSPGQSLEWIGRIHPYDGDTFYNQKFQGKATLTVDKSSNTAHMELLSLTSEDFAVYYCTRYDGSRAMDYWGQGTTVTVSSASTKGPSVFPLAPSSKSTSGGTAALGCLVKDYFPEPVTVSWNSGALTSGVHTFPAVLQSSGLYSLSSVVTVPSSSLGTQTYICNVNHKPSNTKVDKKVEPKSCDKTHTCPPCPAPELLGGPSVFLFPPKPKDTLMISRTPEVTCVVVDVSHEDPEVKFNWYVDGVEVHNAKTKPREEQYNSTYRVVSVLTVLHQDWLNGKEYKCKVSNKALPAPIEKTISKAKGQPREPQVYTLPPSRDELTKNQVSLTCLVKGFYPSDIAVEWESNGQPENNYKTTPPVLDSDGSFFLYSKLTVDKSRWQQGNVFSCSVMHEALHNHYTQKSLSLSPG
light: DIVLTQSPLSLAVSLGQPAIISCKASQSVSFAGTSLMHWYHQKPGQQPRLLIYRASNLEAGVPDRFSGSGSKTDFTLTISPVEAEDAATYYCQQSREYPYTFGGGTKLEIKRTVAAPSVFIFPPSDEQLKSGTASVVCLLNNFYPREAKVQWKVDNALQSGNSQESVTEQDSKDSTYSLSSTLTLSKADYEKHKVYACEVTHQGLSSPVTKSFNRGEC
modifications: Compound A linked through a sulfo-SPDB linker to amino groups of lysine residues, positions not given; Compound A linked through a sulfo-SPDB linker to amino groups of lysine residues, positions not given; average 2.4 Compound A per antibody
The term EC50 denotes the midpoint of the concentration-response curve. The molecule B1 registered an EC50 of 0.426 nM.

B2: huMOV19 (antibody)
heavy: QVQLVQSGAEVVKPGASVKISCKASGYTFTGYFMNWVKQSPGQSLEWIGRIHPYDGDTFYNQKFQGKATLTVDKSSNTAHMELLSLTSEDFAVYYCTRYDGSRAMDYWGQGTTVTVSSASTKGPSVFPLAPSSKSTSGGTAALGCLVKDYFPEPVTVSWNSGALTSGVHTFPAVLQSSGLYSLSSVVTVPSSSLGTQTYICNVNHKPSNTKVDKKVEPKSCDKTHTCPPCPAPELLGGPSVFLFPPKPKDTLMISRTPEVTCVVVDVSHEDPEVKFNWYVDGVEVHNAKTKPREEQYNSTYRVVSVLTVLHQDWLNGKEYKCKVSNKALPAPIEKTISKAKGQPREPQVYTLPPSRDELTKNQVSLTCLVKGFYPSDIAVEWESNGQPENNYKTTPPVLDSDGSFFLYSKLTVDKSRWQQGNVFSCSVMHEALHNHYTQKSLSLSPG
light: DIVLTQSPLSLAVSLGQPAIISCKASQSVSFAGTSLMHWYHQKPGQQPRLLIYRASNLEAGVPDRFSGSGSKTDFTLTISPVEAEDAATYYCQQSREYPYTFGGGTKLEIKRTVAAPSVFIFPPSDEQLKSGTASVVCLLNNFYPREAKVQWKVDNALQSGNSQESVTEQDSKDSTYSLSSTLTLSKADYEKHKVYACEVTHQGLSSPVTKSFNRGEC
On to B2, for which the EC50 was 0.323 nM.

B3: huMOV19-NTS #2 (antibody)
heavy: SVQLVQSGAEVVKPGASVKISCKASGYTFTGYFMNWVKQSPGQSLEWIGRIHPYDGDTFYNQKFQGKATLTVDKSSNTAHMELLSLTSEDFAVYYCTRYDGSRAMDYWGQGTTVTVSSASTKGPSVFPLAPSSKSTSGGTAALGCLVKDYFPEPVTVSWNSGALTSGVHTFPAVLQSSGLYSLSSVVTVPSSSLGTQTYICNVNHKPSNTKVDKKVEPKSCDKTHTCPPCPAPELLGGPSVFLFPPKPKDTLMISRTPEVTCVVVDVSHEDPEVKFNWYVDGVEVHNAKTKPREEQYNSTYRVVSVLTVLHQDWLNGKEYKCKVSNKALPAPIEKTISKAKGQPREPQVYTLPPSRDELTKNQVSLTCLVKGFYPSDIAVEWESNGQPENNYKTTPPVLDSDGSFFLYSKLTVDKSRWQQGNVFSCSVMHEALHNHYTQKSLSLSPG
light: DIVLTQSPLSLAVSLGQPAIISCKASQSVSFAGTSLMHWYHQKPGQQPRLLIYRASNLEAGVPDRFSGSGSKTDFTLTISPVEAEDAATYYCQQSREYPYTFGGGTKLEIKRTVAAPSVFIFPPSDEQLKSGTASVVCLLNNFYPREAKVQWKVDNALQSGNSQESVTEQDSKDSTYSLSSTLTLSKADYEKHKVYACEVTHQGLSSPVTKSFNRGEC
Regarding B3, a half-maximal effect (EC50) was put at 0.243 nM.

B4: huMOV19-NTS #2-Linker1-Compound A (antibody)
heavy: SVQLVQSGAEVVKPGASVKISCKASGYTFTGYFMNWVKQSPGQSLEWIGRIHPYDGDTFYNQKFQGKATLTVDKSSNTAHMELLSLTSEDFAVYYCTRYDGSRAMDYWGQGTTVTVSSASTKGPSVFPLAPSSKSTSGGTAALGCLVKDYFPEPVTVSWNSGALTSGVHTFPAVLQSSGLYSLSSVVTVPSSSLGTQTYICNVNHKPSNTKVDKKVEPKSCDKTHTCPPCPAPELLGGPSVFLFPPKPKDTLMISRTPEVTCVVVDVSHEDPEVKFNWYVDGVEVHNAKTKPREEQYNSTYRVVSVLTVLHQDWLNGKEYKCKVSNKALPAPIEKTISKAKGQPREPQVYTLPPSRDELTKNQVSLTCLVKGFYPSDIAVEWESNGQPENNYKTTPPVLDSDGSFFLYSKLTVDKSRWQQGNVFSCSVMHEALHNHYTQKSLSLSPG
light: DIVLTQSPLSLAVSLGQPAIISCKASQSVSFAGTSLMHWYHQKPGQQPRLLIYRASNLEAGVPDRFSGSGSKTDFTLTISPVEAEDAATYYCQQSREYPYTFGGGTKLEIKRTVAAPSVFIFPPSDEQLKSGTASVVCLLNNFYPREAKVQWKVDNALQSGNSQESVTEQDSKDSTYSLSSTLTLSKADYEKHKVYACEVTHQGLSSPVTKSFNRGEC
modifications: N-terminal Ser oxidized to an aldehyde and linked through Linker1 to Compound A (sulfonated DGN462); two Compound A molecules per antibody
For the molecule B4, the midpoint of the response, the EC50, lay at 0.881 nM.
